Assay results from patent CN117866087A.

What was measured:
[1] = target: pTau181标准品; assay: bead sandwich flow cytometry; Tau-2 on beads as capture, PE-labelled anti-pTau181 antibody as detector, 5μg/mL pTau181 standard
[2] = target: pTau181标准品; assay: bead sandwich flow cytometry; Tau-3 on beads as capture, PE-labelled anti-pTau181 antibody as detector, 5μg/mL pTau181 standard

- 荧光信号强度 [1]: 343000
- 荧光信号强度 [2]: 420000
B1: 实施例3纯化后的重组抗体(重组抗pTau181单克隆抗体) (antibody, mouse IgG1, kappa, V domains shown)
VH: LQQPGSEYARPGASVKLSCKASGYTFTSYWMHWVKQRHGQLLEWIGNIYPGSGSSNYDEKFKSKGTLTVDTSSSTAYMHLSSLTSEDSAVYYCTRSGWLLRDYAMDYWGQGTSVTVSS
VL: DVLMTQTPLSLPVSLGDQASISCRSSQSIVHSNGNTYLEWYLQKPGQSPKLLIYKVSTRFSGVPDRFSGSGSGTDFTLKISRVEAEDLGVYYCFQGSHVPYTFGGGTKLEIKA
modifications: 在实施例4中偶联藻红蛋白荧光素(方案1)或偶联微球(方案2)
